According to US20230357444A1 (published 2023):

Columns and labels:
[1] = molecular target: T1, human CD3 (native CD3 complex on human T cells) (human, UniProt P07766 23-207); test: FACS, HPB-ALL
T1 construct: whole, on cells; also called human CD3+ T cell line HPB-ALL; human CD3 positive PBMC

[2] = molecular target: T2, 1-27 CD3-Fc (N-terminal amino acids 1-27 of the mature human CD3 epsilon chain fused to the hinge and Fc … (human)); test: SPR (Biacore), 1-27 CD3-Fc immobilised
T2 construct: The construct was made with a 19 aa immunoglobulin leader; also called 27 aa huCD3E; human CD3 epsilon (aa 1-27)-Fc fusion protein

T1 sequence (P07766 23-207, one chain of several): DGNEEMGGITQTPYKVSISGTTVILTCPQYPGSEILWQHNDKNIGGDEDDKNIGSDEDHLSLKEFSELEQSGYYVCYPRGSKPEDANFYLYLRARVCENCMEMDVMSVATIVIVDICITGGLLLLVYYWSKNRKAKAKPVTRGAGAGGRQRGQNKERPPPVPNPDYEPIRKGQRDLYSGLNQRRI

binding result [1] | Kd [2] [µM] | Binder
binds | – | MCSP-G4 HLP × E2M HLP (bispecific antibody) QVQLVQSGAEVKRPGASMKVSCKASGYTFTNYYIHWVRQAPGQGLEWMGWINPNSGATNYAQKFQGRVTMTRDTSTSTVYMELSSLRSEDTAVYYCAKSWVSWFASWGQGTLVTVSSGGGGSGGGGSGGGGSELVMTQSPDSLAVSLGERATINCKSSQSVLNSSNNRNYLAWYQQKPGQPPKLLIYWASTRESGVPDRFSGSGSGTDFTLTISGLQAEDVAVYYCQQHYSTPFTFGPGTKVDIKSGGGGSEVQLLESGGGLVQPGGSLKLSCAASGFTFNGYAMNWVRQAPGKGLEWVARIRSKYNNYATYYADSVKERFTISRDDSKNTAYLQMNNLKTEDTAVYYCVRHRNFGNSYLSWFAYWGQGTLVTVSSGGGGSGGGGSGGGGSELVVTQEPSLTVSPGGTVTLTCRSSTGAVTSGYYPNWVQQKPGQAPRGLIGATDMRPSGTPARFSGSLLGGKAALTLSGVQPEDEAEYYCALWYSNRWVFGGGTKLTVLHHHHHH
– | 0.249 | EGFR-21-63 LH × A2J HLP (bispecific antibody, also called EGFR LH × A2J HLP) DIVLTQSPASLPVSLGQRATISCRASQSVSSSTYSYIHWYQQKPGQPPKLLITYASNLESGVPARFSGSGSGTDFTLDIHPVEEDDSSTYYCQHSWEIPFTFGSGTKLEIKGGGGSGGGGSGGGGSQVQLQQSGPDLVKPGASVKMSCKASGHTFTDCVIIWVKQRAGQGLEWIGQIYPGTGRSYYNEIFKGKATLTADKSSNTVHIQLSSLTSEDSAVYFCALSTLIHGTWFSYWGQGTLVTVSSGGGGSEVQLLESGGGLVQPGGSLKLSCAASGFTFNVYAMNWVRQAPGKGLEWVARIRSKYNNYATYYADSVKKRFTISRDDSKNTAYLQMNNLKTEDTAVYYCVRHGNFGNSYLSWWAYWGQGTLVTVSSGGGGSGGGGSGGGGSELVVTQEPSLTVSPGGTVTLTCRSSTGAVTSGYYPNWVQQKPGQAPRGLIGATDMRPSGTPARFSGSLLGGKAALTLSGVQPEDEAEYYCALWYSNRWVFGGGTKLTVLHHHHHH
– | 2.46 | EGFR-21-63 LH × E2M HLP (bispecific antibody, also called EGFR LH × E2M HLP) DIVLTQSPASLPVSLGQRATISCRASQSVSSSTYSYIHWYQQKPGQPPKLLITYASNLESGVPARFSGSGSGTDFTLDIHPVEEDDSSTYYCQHSWEIPFTFGSGTKLEIKGGGGSGGGGSGGGGSQVQLQQSGPDLVKPGASVKMSCKASGHTFTDCVIIWVKQRAGQGLEWIGQIYPGTGRSYYNEIFKGKATLTADKSSNTVHIQLSSLTSEDSAVYFCALSTLIHGTWFSYWGQGTLVTVSSGGGGSEVQLLESGGGLVQPGGSLKLSCAASGFTFNGYAMNWVRQAPGKGLEWVARIRSKYNNYATYYADSVKERFTISRDDSKNTAYLQMNNLKTEDTAVYYCVRHRNFGNSYLSWFAYWGQGTLVTVSSGGGGSGGGGSGGGGSELVVTQEPSLTVSPGGTVTLTCRSSTGAVTSGYYPNWVQQKPGQAPRGLIGATDMRPSGTPARFSGSLLGGKAALTLSGVQPEDEAEYYCALWYSNRWVFGGGTKLTVLHHHHHH
